Measurements taken from US20150056205A1, “STEROID SPARING AGENTS AND METHODS OF USING SAME” (BIOGEN IDEC MA INC., priority 2004, published 2015).

Key:
[1] = tested on: subjects with active ulcerative colitis; test: open-label single infusion study in active ulcerative colitis; type: in vivo; conditions: for mean PTAI score: 9.7 at Week 0
Protocol: Another earlier study was an open-label safety, tolerability, and efficacy study of a single infusion of 3 mg/kg intravenous natalizumab in male and female subjects with active ulcerative colitis.

guinea pig EAE = test: guinea pig Experimental Allergic Encephalitis (EAE) model; type: in vivo
Protocol: The initial dose of natalizumab selected for clinical evaluation was based on non-clinical studies in the guinea pig Experimental Allergic Encephalitis (EAE) model. […] A single dose of 3 mg/kg appeared to provide serum concentrations of natalizumab associated with α4 integrin receptor blockade for up to approximately 3 weeks, and 6 mg/kg for about 6 weeks.

[2] = tested on: pregnant cynomolgus monkeys; test: follow-up reproductive toxicity study; type: in vivo, cynomolgus monkey; conditions: two in the control
Protocol: (§1) In mice, there is evidence that α4 integrin and VCAM-1 play a role in placental and cardiac development, and they may also play a wider role in fetal development. There is, therefore, a risk of an abortifacient effect or teratogenicity if α4 integrin is blocked by natalizumab. A preliminary reproductive toxicity study exposed groups of five pregnant cynomolgus monkeys to repeated intravenous doses of 0.06, 0.3, or 30 mg/kg natalizumab. One of five pregnant females in the 30 mg/kg group aborted at Day 31 of gestation after receiving five doses of natalizumab. Because the overall rate of abortion fell within the rate of spontaneous abortion in this species, the event was not believed to be related to natalizumab. An ongoing follow-up reproductive toxicity study has exposed groups of 10 to 15 pregnant cynomolgus monkeys to repeated intravenous doses of 3, 10, or 30 mg/kg. Embryo deaths have occurred at similar rates in all treatment groups: two in the control, one in the 3 mg/kg, two in the 10 mg/kg and two in the 30 mg/kg groups respectively. As a precaution, women of childbearing potential must utilize effective contraception throughout the duration of the study and for at least 3 months after the last infusion of study drug, and must have a negative pregnancy test at the time of each natalizumab dosing.

primates = conditions: in vivo
Source text: The inflammation was characterized by increased numbers of lymphocytes and plasma cells within the lamina propia with occasional crypt abscesses.

[3] = tested on: subjects with moderately to severely active Crohn's disease; test: placebo-controlled one or two infusion study in moderately to severely active Crohn's disease; type: in vivo; conditions: for subjects withdrawn due to adverse events: placebo 2; for subjects reporting a serious adverse event: placebo 9
Protocol: Another earlier study was a double-blind, placebo-controlled, parallel group, multicenter, efficacy, safety, and tolerability study of either one or two intravenous infusions of placebo, 3 or 6 mg/kg natalizumab in subjects with moderately to severely active Crohn's disease. […] Sixty-eight subjects were randomized to a single infusion of 3 mg/kg, 66 to two infusions of 3 mg/kg at a 4-week interval, 51 to two infusions of 6 mg/kg at a 4-week interval and 63 to receive placebo.

[4] = tested on: pregnant cynomolgus monkeys; test: preliminary reproductive toxicity study; type: in vivo; conditions: 30 mg/kg group, repeated intravenous doses, Day 31 of gestation after five doses
Protocol: as §1

[5] = Week 6, two infusions of 3 mg/kg

natalizumab was tested, and the “mean PTAI score” value ([1]; 1 week post-treatment) was 6.9, the “subjects with good clinical response (PTAI score ≦5)” value ([1]; 2 and 4 weeks after single 3 mg/kg infusion, ten subjects) was 50% and the “mean PTAI score” value ([1]; 2 weeks post-treatment) was 5.7. For the same substance, the “mean PTAI score” value ([1]; 4 weeks post-treatment) was 4.9, the “subjects who received no rescue medication” value ([1]; between Weeks 0 and 4) was “Seventy percent” and the “adverse events considered related to study drug” value ([1]; of the 30 adverse events reported) was 3. For the same substance, the “subjects reporting a serious adverse event” value ([1]; ten subjects, single 3 mg/kg) was “Three”, the “signs and symptoms of EAE” value (guinea pig EAE; dose of 3 mg/kg) was “significant delay in onset and a reversal of the signs and symptoms of EAE” and the “signs and symptoms of EAE” value (guinea pig EAE; lower doses than 3 mg/kg) was “not effective”. For the same substance, the embryo deaths ([2]; 3 mg/kg repeated intravenous doses) was “one”, the embryo deaths ([2]; 10 mg/kg repeated intravenous doses) was “two” and the embryo deaths ([2]; 30 mg/kg repeated intravenous doses) was “two”. The “treated animals with minimal to mild lymphoplasmacytic inflammation of the mucosa of the cecum, colon, and/or rectum” value (primates) was “about half”, the “remission rate (CDAI<150)” value [3, 5] was 46% and the “response rate (≧70 point drop in CDAI)” value [3, 5] was 73%. The “response rate (≧100 drop in CDAI)” value [3, 5] was 56%, the “remission rates (CDAI<150)” value ([3]; Weeks 8 and 12, two infusions of 3 mg/kg and two infusions of 6 mg/kg) was 41-43% and the C-reactive protein ([3]; in vivo) was “decreases”. The “quality of life, Inflammatory Bowel Disease Questionnaire” value ([3]; in vivo) was “Statistically significant improvements”, the “subjects withdrawn due to adverse events” value ([3]; single 3.0 mg/kg infusion) was 1 and the “subjects reporting a serious adverse event” value ([3]; single 3.0 mg/kg infusion) was 8. The safety and tolerability ([3]; subjects with active CD) was “safe and well tolerated”, the “subjects withdrawn due to adverse events” value ([3]; two 3 mg/kg infusions) was 2 and the “subjects reporting a serious adverse event” value ([3]; two 3 mg/kg infusions) was 8. The “subjects withdrawn due to adverse events” value ([3]; two 6 mg/kg infusions) was 3, the “subjects reporting a serious adverse event” value ([3]; two 6 mg/kg infusions) was 7 and the “pregnant females that aborted” value [4] was “One of five”.
